# Source: article PMC7949081
# Target: Zn2+
# Experiment: Zincon assay
# Details: purified Vif complex denatured and deproteinated; metal ions measured in supernatant; parent: est. 1.3; read off a plot
row,Substance,other: Zn2+:Protein Ratio
1,"maedi–visna virus (MVV) Vif, WT, residues 1-230, N-terminal 6xHis tagged (from UniProt P69715) C135S",0.09
2,"maedi–visna virus (MVV) Vif, WT, residues 1-230, N-terminal 6xHis tagged (from UniProt P69715) C137S",0.07
3,"maedi–visna virus (MVV) Vif, WT, residues 1-230, N-terminal 6xHis tagged (from UniProt P69715) C157S",0.2
4,"maedi–visna virus (MVV) Vif, WT, residues 1-230, N-terminal 6xHis tagged (from UniProt P69715) C160S",0.17
5,"maedi–visna virus (MVV) Vif, WT, residues 1-230, N-terminal 6xHis tagged (from UniProt P69715) C207S",0.93
6,"maedi–visna virus (MVV) Vif, WT, residues 1-230, N-terminal 6xHis tagged (from UniProt P69715) C222S",0.77
7,"maedi–visna virus (MVV) Vif, WT, residues 1-230, N-terminal 6xHis tagged (from UniProt P69715) H7N",1.2
8,"maedi–visna virus (MVV) Vif, WT, residues 1-230, N-terminal 6xHis tagged (from UniProt P69715) H129N",0.92
9,"maedi–visna virus (MVV) Vif, WT, residues 1-230, N-terminal 6xHis tagged (from UniProt P69715) H152N",0.97
10,"maedi–visna virus (MVV) Vif, WT, residues 1-230, N-terminal 6xHis tagged (from UniProt P69715) H181N",1.2
11,"maedi–visna virus (MVV) Vif, WT, residues 1-230, N-terminal 6xHis tagged (from UniProt P69715) H186N",1.1
